Measurements: patent publication CN113912731A (SHENGHE CHINA BIO PHARMACY CO LTD, dated 2022)

Legend:
[1] = target: T1, 人FGL1-his蛋白(Sinobio;Cat:13484-H08B) (human, UniProt Q08830 23-312); assay: ELISA, plate coated with human FGL1-his
T1 construct: Bought protein; also called 重组人FGL1-his蛋白; not shown: his tag
T1 sequence (looked up): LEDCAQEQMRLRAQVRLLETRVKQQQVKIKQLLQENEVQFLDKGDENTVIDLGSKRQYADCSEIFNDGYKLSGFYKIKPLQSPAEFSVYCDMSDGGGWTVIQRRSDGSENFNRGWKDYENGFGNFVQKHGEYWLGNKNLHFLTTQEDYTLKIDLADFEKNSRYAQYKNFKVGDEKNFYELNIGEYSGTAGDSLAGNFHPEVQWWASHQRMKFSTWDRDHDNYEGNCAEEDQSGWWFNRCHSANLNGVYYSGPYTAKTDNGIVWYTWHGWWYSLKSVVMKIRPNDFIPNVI

[2] = target: T2, 鼠FGL1-his (mouse, UniProt Q71KU9 23-314, limits assumed); assay: human/mouse cross-reactivity (ELISA of Example 8)
T2 construct: also called 小鼠FGL1蛋白; 鼠FGL1蛋白; not shown: his tag
T2 sequence (looked up): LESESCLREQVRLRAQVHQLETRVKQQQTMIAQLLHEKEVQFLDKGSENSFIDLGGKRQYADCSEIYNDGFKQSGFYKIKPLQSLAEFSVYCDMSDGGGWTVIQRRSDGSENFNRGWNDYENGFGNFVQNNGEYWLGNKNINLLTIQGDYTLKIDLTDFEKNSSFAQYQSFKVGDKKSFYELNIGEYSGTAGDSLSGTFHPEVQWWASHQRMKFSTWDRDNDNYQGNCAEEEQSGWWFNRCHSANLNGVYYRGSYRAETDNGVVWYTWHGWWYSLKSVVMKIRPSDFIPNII

B1: SH-10 (antibody, human IgG1, V domains shown)
VH: EVQLVESGGGLVQPGGSLRLSCAASGDTLDYYAIGWFRQAPGKEREGVSCIRSSGSGPHYSDSVQDRFIISRDNARGTVYLQMNSLKPEDTAVYYCAATEGFYCSPTLSQGEYDYWGQGTQVTVSS
notes: Heavy-chain-only antibody from the alpaca immune phage library; expressed in CHO cells; also called 抗体SH-10
- binding result [1]: binds

B2: SH-09 (antibody, human IgG1, V domains shown)
VH: QVQLVESGGGLVQPGGSLRLSCTASGFNLDFYTIGWFLQAPGKEREGVSCISNSGGSSVYADSVKGRFTISRDSAKNTVYLQMNSLDPEDTAVYYCAALAGRGCMRSPITTDEYDSWGQGTQVTVSS
notes: Heavy-chain-only antibody from the alpaca immune phage library; expressed in CHO cells; also called 抗体SH-09
- binding result [1]: binds

B3: SH-06 (antibody, V domains shown)
VH: QVQLQESGPGLVKPSQTLSLTCTVSGGSISSGGYYWSWIRQHPGKGLEWIGYIYYSGSTYYNPSLKSRVTISVDTSKNQFSLKLSSVTAADTAVYYCARDSVMGYAPRVRAFDIWGQGTMVTVSS
VL: QSALTQPPSASGTPGQRVTISCSGSSSNIGTNTVNWYQQLPGTAPKLLIYSTNQRPSGVPDRFSGSKSGTSASLAISGLQSEDEADYYCSSWAGDLNGRLFGGGTKLTVL
notes: From the human natural phage display library; also called 抗体SH-06; not shown: 轻链恒定区
- binding result [1]: binds

B4: SH-07 (antibody, V domains shown)
VH: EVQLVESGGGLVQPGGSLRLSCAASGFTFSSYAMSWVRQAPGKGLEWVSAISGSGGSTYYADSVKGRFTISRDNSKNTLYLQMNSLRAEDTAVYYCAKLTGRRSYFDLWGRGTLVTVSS
VL: DIQMIQSPSSLSASVGDRVTITCRASQSISHYLNWYQQKPGKVPKLLIYAASSLQSGVPSRFSGSGSGTDFTLTISSLQPEDFATYYCQQSYSTPSFGQGTKVEIK
notes: From the human natural phage display library; also called 抗体SH-07; not shown: 轻链恒定区
- binding result [1]: binds
- binding result [2]: binds

B5: SH-08 (antibody, V domains shown)
VH: EVQLVESGGGLVKPGGSLRLSCAASGFTFSSYSMNWVRQAPGKGLEWVSSISSSSSYIYYADSVKGRFTISRDNAKNSLYLQMNSLRAEDTAVYYCARDFPSPSGGRGFRPTTARGYGMDVWGQGTTVTVSS
VL: QSALTQPASVSGSPGQSIIISCTGSKSDIGTYNFVSWYQQHPGKAPNVIIYNVNKRPSGVSDRFSGSKSGNTASLTISGLQAEDEADFYCSSYTSSGTHVFGSGTKVIVL
notes: From the human natural phage display library; also called 抗体SH-08; not shown: 轻链恒定区
- binding result [1]: binds

B6: SH-04 (antibody, V domains shown)
VH: EVQLQQSGPELEKPGASVKMSCKASGYTFTRYWMHWVKQRPGQGLEWIGMIDPSDSYTSYNQKFKGKATLTVDTSSSTAYMQLSSLTSEDSAVYYCTLRPGLDYWGQGTTLTVSS
VL: DIVMTQSQKFMSTSVGDRVSVTCKASQNVGTNVAWYQQKPGQSPKALIYSASYRYSGVPDRFTGSGSGTDFTLTISNVQSEDLAEYFCQQYNSYPLTFGGGTKLEIK
notes: From hybridoma; also called 抗体SH-04; not shown: 轻链恒定区
- binding result [1]: binds

B7: SH-05 (antibody, V domains shown)
VH: EVQLVQSGGVVVQPGGSLRLSCAASGFTFDDYAMHWVRQAPGKGLEWVSLISWDGGSTYYADSVKGRFTISRDNSKNTLYLQMNSLRAEDTAVYYCARNSGRRNWFDPWGQGTLVTVSS
VL: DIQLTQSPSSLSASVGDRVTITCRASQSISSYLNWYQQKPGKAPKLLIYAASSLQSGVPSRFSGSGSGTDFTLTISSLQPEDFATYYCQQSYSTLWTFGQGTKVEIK
notes: From the human natural phage display library; also called 抗体SH-05; not shown: 轻链恒定区
- binding result [1]: binds

B8: SH-03 (antibody, V domains shown)
VH: QVQLQQSGPELVKPGASVKISCKASGYTFTDYYINWLRQKPGQGLEWIGWIYPGSANTNYNEKFKGKAILTVDTSSSTAYMQLSSLTSEDTAVYFCARWLLRSAYWGQGTLVTVSA
VL: DIVLSQSPAILSASPGEKVTMTCRASSSVSYMYWYQQKPGSSPKPWIYATSNLASGVPARFSGSGSGTSYSLTISRVEAEDAATYYCQQWSSNPYTFGGGTKLEIK
notes: From hybridoma; also called 抗体SH-03; not shown: 轻链恒定区
- binding result [1]: binds
